This note sets out measurements from the DeepSol protein solubility set.

This data set can be described thus: soluble on expression in E. coli; label from the status in PepcDB or PDB records.
With “MSLKGDYFFMDRRPLILVAEENLHNLELLNSHMKTLNYDCICAKQGVRAIILAQTQKPDLIILDMILSDLSGSQVINHLKQDSKTANIPIIAVIPFILVQNQDHLFLTGADDYITKPYNFIQLNTLITHYVNRRHSSSLLSEGHHHHHH”, the “soluble on expression in E. coli” value was “soluble”.

On to “MSLKHYQRINELEEKKIKLRERPVIDELSKVKKLKLTGQTEALFESWRSSWDEIETRLFPDLEEVLLEAEMNTDRYKFRSATHAENDIEQMLVVIEKQMDQILGGLKELLISEEKNAKESRATKEKFAELRREVLTRGFKLGETLPYIETKLSELSESLNSYDSLTDQGDHLEAREIVIVVQKEMQVIEAQMERIPSLLHETDTILPEEMTKLRAGYEEMVRKGYYLAQMELDKEISRMKNQIDKMKKNVINLDLDEAEQGVEELHNEIDLFYDTLEHEAEARHFVKENHSPTSDKLQRQNAVSDALAEQITEVKQTYHVAEDDLAVYLKTSAKLSEAKENFEQLTALIASGEIAYSAAQDTLKEIDAALITISAEQDKFAEELRSLRKDELEARDDAERMRRAIITLDRKMERERLPGLPEEYLSLREHMGESINALEKRLEEKPLNMKAVSQDWRIAEEDLTHLTEKAEEMMENVRLVEHVIQYANRYRLRNKELADELVQAENHFYNDYQYKKALEIAVTALEKVETGAFKKVEKAYESKVSVDEGHHHHHH”, for which the “soluble on expression in E. coli” value is reported as “soluble”.

For “MSLKICVIGSSGHFRYALEGLDEECSITGIAPGVPEEDLSKLEKAISEMNIKPKKYNNWWEMLEKEKPDILVINTVFSLNGKILLEALERKIHAFVEKPIATTFEDLEKIRSVYQKVRNEVFFTAMFGIRYRPHFLTAKKLVSEGAVGEIRLVNTQKSYKLGQRPDFYKKRETYGGTIPWVGIHAIDWIHWITGKKFLSVYATHSRLHNSGHGELETTALCHFTLENEVFASLSIDYLRPQGAPTHDDDRMRIVGTRGIVEVINERVFLTDEKGHREVPLVEKGQIFEDFLREIRGQGKCMVTPEDSILTTEIALKARLSADTGQIVLIEGHHHHHH”, the “soluble on expression in E. coli” value is “soluble”.

For the sequence “MSLKILDISTEVKEIALKTPFITALRRVDAVEFVRVKVVCDDGSVAYGEAPATRAVTGEDIYSILSDIAFIQEELIGLTPKDAIVSLHLAEMGSSAKAALDMALFYLLPQTKEKQNLTLQTDITISLKDSDEMISDATQAIASGMNILKVKFGGDIKHAIEVTNRLSELDAKLIIDANQAWTQDDTMEYLEATLNVKLELIEQPVKADELHELRCITNYSHVPILADESVFTLEDAKAIIEYACADMINIKLMKCGGVTKAIEILEFARKNDIKCMLGSMLEGPISINAALNLAMEYSDVIAYIDLDSPLLYKEPSNELEFDFNGCEITRKEGHHHHHH”, the “soluble on expression in E. coli” value is listed as “soluble”.

With “MSLKINNLVDLHCHILPAIDDGSPSLEASLELARQAVADGIRYILATPHHMDRHYLNHAGDVVAAVEAFQAELDVNDIPLTIFPGQEVHLNGQLMEKVDDLLSIDTGRHYLLLELPHEMVPSYLDEMIFQLSCEGITPVIAHPERNAQIIAEPQRLYKLAEDGVLAQVTATSLVGTFGEQVQRTAKEFVKCGLVQVVASDAHTLKNRGFAMTKAYQVLNEMDSKYPERFATNARDLLNGEQIEMGQIEIPRKQRKHWLFEGHHHHHH”, the “soluble on expression in E. coli” value is listed as “soluble”.

Take “MSLKIRQARLEDLDRIVELEFENFSVEEAIPPSVFEAHLREIQTSFLVAEKEGRIMGYIEGPVGLHRHLQDQSFTEEIKDYSHEPGGYISVTCLSIAKEAQGLGLGQKLLTALKEVALEDERDGINLTCHDYLIAYYEKHGFVNEGQSQSTFAGETWYDMVWEMKKEGHHHHHH”: the “soluble on expression in E. coli” value is listed as “soluble”.

Consider “MSLKITAVEPFILHLPLTSESISDSTHSITHWGVVGAKITTSDGIEGYGFTGTHAHLPSDRLITSCISDCYAPLLLGEDASDHSRLWTKLARYPSLQWVGRAGITHLALAAVDVALWDIKAKKAGVPLWHYLGGARTAGVEAYNTDIGWLSFTLEDLLAGSARAVEEDGFTRLKIKVGHDDPNIDIARLTAVRERVDSAVRIAIDGNGKWDLPTCQRFCAAAKDLDIYWFEEPLWYDDVTSHARLARNTSIPIALGEQLYTVDAFRSFIDAGAVAYVQPDVTRLGGITEYIQVADLALAHRLPVVPHAGEMSQVHVHLSYWHPASTILEYIPWIKDHFEEPIHVRDGVYKRPEQPGASTTPLAESFTRYGKAVKEGHHHHHH”, for which the “soluble on expression in E. coli” value was “soluble”.

As for “MSLKITRITVYQIALPLEHPYWLSGGRLKFEVLDATLVKIETGTGLTGWGEGTPWGHTYVPAHGPGIRAGIETMAPFIIGLDPRRGLEIERAMDLALPGHLYAKSPIDMACWDIAGQAAGLSIADLMGGGSRTPRPIASSVGAKTVEETRAVIERYRQRGYVAHSVKIGGDIERDIARVRDVESLRRDGEIVLYDVNRGWTRQQALRVMSATEDLNVMFEQPCESLDDIAAIAGKYAAPVSVDESLVTLQDAARIARDGLAEVFGIKLNRVGGLTKAARMRDIALAHGIDMFVMATGGSVLADAEALHLAATIPDANCHAVWACQDMITLDIAGGRGPRNIDGHLHLTEAPGLGVHPDEDVLGDPVGVYGEGHHHHHH”, the “soluble on expression in E. coli” value was “not soluble”.

For the sequence “MSLKKFSCGFEVTKEVIGGKWKGLVLYFLMNGPKRTSELKRIIPNITQKMLIQTLRELEASGLVSRKMYNQVPPKVEYSSTELGESLKPILQELCQWGGYYAEQEYAEGEYEIVQPEQLSEGGSHHHHHH”, the “soluble on expression in E. coli” value is “soluble”.

For “MSLKKGYELLIFDWDGTLADSIGRIVEAMNVAAERAGEAQSSDAAVKGIIGLALDEAIHTLYPHLAPAEVASFRQHYADVYVALDQQPSPLFDGVVESLDAFRAEGYRLAVATGKARRGLDRVLKANGWERFFDITRAADETRGKPHPLMLEEILGHCGVEPSRALMVGDSAFDLQMASNAGMHSVAVGYGAMSLQALAEFGPQVCIDHFSQLREWLGGSAIPLPREGHHHHHH”, the “soluble on expression in E. coli” value is on record as “soluble”.

Regarding “MSLKKIMEYLQHYINQYPHRLALVFEDRHLTYGELSKEIYQASMRYKEVKLNEKVGLMDDHPVNNIINYFAVHQRGGIPCIFNHQWSNERIHQLVKSYDIQWLIKDNHLTLNHDDSIYNDEVIPRNVIHIGFTSGTTGLPKAFYRNEHSWIVSFKENEKLLQHCEETIVAPGPLSHSLSLYACIYALSTGKTFIGQKNFNPLSLMRLINQLNKATAIFVVPTMVQQLISTQRHCSSIKSILSSGAKLTLQQFQQISTLYPQANLIEFFGTSEASFISYNFNQSSPAHSVGKLFPHVETRLLNQDDDAVGLLAVRSEMVFSGYVGQSNQEGSWIKTGDFAYIKNQHLFLVGRESDRIIVGGINVYPTAIESLIMDIEGIDEALVIGIPHAKFGEIAILLYSGKVQLNYRQIKSFLMKQLSRQEVPSKLKKIDHMIYTESGKIARKEMKNKFINGEGHHHHHH”, the “soluble on expression in E. coli” value was “not soluble”.

Consider “MSLKKKIAVVTGATGGMGIEIVKDLSRDHIVYALGRNPEHLAALAEIEGVEPIESDIVKEVLEEGGVDKLKNLDHVDTLVHAAAVARDTTIEAGSVAEWHAHLDLNVIVPAELSRQLLPALRAASGCVIYINSGAGNGPHPGNTIYAASKHALRGLADAFRKEEANNGIRVSTVSPGPTNTPMLQGLMDSQGTNFRPEIYIEPKEIANAIRFVIDAGETTQITNVDVRPRIELADRKEGHHHHHH”, for which the “soluble on expression in E. coli” value is reported as “soluble”.

Consider “MSLKKNFALEKKKELQEMTNSAVRRVLDFKKDPNKVIELLNFMARSPQYSFKNQMMVSSQYENSNFTMGSRQFKETMGLKVNENATPIKIVAPVMNTFFKRNDKLVQLRFANKEEKEKIKNKEIKTIQNVWYYKLVDVYDITQTNAKPEDFPEYYPDRRYNFYVKNTEVIDDIISANKKLLKDNNIHLIENHTYNQLGTSVGFAGKNLTGDKIVGYRDGLNKTEILHTLLHETTHAFYHQKENPEKTTELKEFEAEMTAYIVAKRFGVDTSEHTIKYVSDWTESMSKIEDIEQSIKTVSMYSSRIINDIEKQIDPVKIKEGHHHHHH”, for which the “soluble on expression in E. coli” value is recorded as “not soluble”.
